From the nanobody polyreactivity screen of Harvey et al. (2022)

Test: yeast display, Sf9 membrane polyspecificity reagent, FACS + sequencing; frameworks hold sequencing errors
In short: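 Nanobodies came from a synthetic yeast display library in Saccharomyces cerevisiae BJ5465, induced with galactose for 36–48 hours and stained for 1 hour at 4 °C with 10% biotinylated, detergent-solubilized Sf9 membrane reagent. Cells were enriched on streptavidin microbeads and then FACS-sorted, with low and high (top ~1%) gates set on anti-HA fluorescence for expression and streptavidin fluorescence for reagent binding. Each polyreactivity label reflects the gate a clone came from. Genes were amplified by colony PCR, sequenced by MiSeq 2 × 250 and filtered by CDR length.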

Sequence: QVQLVESGGGLVQAGGSLRLSCAASGRIFSAYAMGWYRQAPGKEREFVAAISARGGSTNYADSVKGRFTISRDNAKNTVYLQMNSLNPEDTAVYYCNDRYVQWYWIAKVIHIDNDYWGQGTQVTVSS
- polyreactivity (PSR sort gate): low polyreactivity

Sequence: QVQLVESAGGLVQAGGSLRLSCAASGNTFANYAMGWDRQAPGKERELVAAITRGGSTFYADSVKGRFTISRDNAKNTVYLQMNSLKPEDSAVYYCAKGYGTNTRYYHRYRYDYWGQGTQVTVSS
- polyreactivity (PSR sort gate): high polyreactivity

Sequence: QVQLVESGGGLVQAGGSLRLSCAASGFILKYYAMGWYRQAPGKERELVAAISWSGGSTYYADSVKGRFTISRDNAKNTVYLQMNSLKPEVTAVYYCNAYYVYNSLGYWGQGTQVTVSS
- polyreactivity (PSR sort gate): high polyreactivity

Sequence: QVQLVESGGGLVQAGGSLRLSCAASGGTFPWYTMGWYRQAPGKERELVAAISVSGDSTHYADSVKGRFTISRDNAKNTVYLQMNSLKPEDTAVYYCAATYLVSSDKYDYWGQGTQVTVSS
- polyreactivity (PSR sort gate): high polyreactivity

Sequence: QVQLVESGGGLVQAGGSLRLSCAASGITFQWYTMGWYRQAPGKERELVATISSGGSTNYADSVKGRFTISRDNAKNTVYLQMNSLKPEDTPVYYCAAYDYISSTYFLDEYWGQGTQVTVSS
- polyreactivity (PSR sort gate): low polyreactivity

Sequence: QDQLVESGRGLVQAGGNLRLSCAPSRSIFTTYAMGWYRQARGKERHFVATITSSDSTNYADSVKGRFTISRDNAKNTVYLQMNSLNPEETAVYYCNAGGDRTVSVAWYSADDFWGQGTQVTVSS
- polyreactivity (PSR sort gate): low polyreactivity

Sequence: QVQLLESGGGLVQAGGSLRLTCAASGNIFISYAMAWYRQAPGKERELVAAISRSGGSTYYADSVKGRFTISRDNAKNTVYLQMNSLKPEDTAVYYCAAYIGPGRYGSWGQGTQVTVSS
- polyreactivity (PSR sort gate): high polyreactivity

Sequence: QVQLVESGGGLVQAGGSLRLSCAASGSTSQPYAMGWYRQAPGQERELVASITNGGITYYADSVKGRFTISRDNAKNTVYLQMNSLKPEDTAVYYCNTVSYTEFDYWGQGTQVTVSS
- polyreactivity (PSR sort gate): low polyreactivity

Sequence: QVQLVESGGGLVQAGGSLRLSCAASGRTFFYNAMGWYRQAPGKERELVAAIDWSGDSTYYADSVKGRFTISRDNAKNTVYLQMNSLKPEDTAVYYCAADGGQVDDSATRLYYWGQGTQVTVSS
- polyreactivity (PSR sort gate): high polyreactivity

Sequence: QVQLVESGGGLVQAGGSLRLSCAASGYIFYDNAMGWYRQAPGKDREFVSTYYADSVKGRFTISRDNAKNTVYLQMNSLKPEDTAVYYCAAVYSHEGYCWGQGTQVTVSS
- polyreactivity (PSR sort gate): low polyreactivity

Sequence: QVQLVESGGGLVQAGGSLRLSCAASGRTFGLYAMGWYRQAPGKERELVATITTSDIMTYYADSVKGRFTISRDNAKNTVYLQMNRLKPEDTAVYYCATGGYDDFSSRPANDYWGQGTQVTVSS
- polyreactivity (PSR sort gate): low polyreactivity

Sequence: QVQLVESGGGLVQAGGSLRLSCAASGSIFPLYAMGWYRQAPGKERELVADITVSGGSTYYADSVKGRFTISRDNAKNTVYLQMNSLKPEDTAVYYCAKDNGPWFAYDYWGQGTQVTVSS
- polyreactivity (PSR sort gate): low polyreactivity

Sequence: QVQLVESGGGLVQAGGSLRLSCAASGFTFYLYAMGWYRQAPGKERELVAAITWSGGRTYYADSVKGRFTISRDNAKNTVYLQMNSLKPEDTAVYYCAAVVRKQLSAPSDYWGQGTQVTVSS
- polyreactivity (PSR sort gate): high polyreactivity

Sequence: QVQLVESGGGLVQAGGSLRLSCAASGSTFGVYAMGWYRPAPGKERELVAAIRWSGGGTYYADSVKGRFTISRDNAKNTVYLQMNSLKPEDTAVYYCNTDILSIYAEPYYFTDVDYWGQGTQVTVSS
- polyreactivity (PSR sort gate): low polyreactivity

Sequence: QEQLQESGGGLVQAGGSLRLSCAASGIIFDWFFMGWYRQAPGREREFVAAITYGATTNYADSVKGRFTISRDNGKNTVYLQMNSLKPEDTAVYYCAAVRGRGGTHAYWGQGTQVTVSG
- polyreactivity (PSR sort gate): low polyreactivity

Sequence: QVHLVESGGGLVQAGGSLRLSCAASGRIFVRYAMGWYRQAPGKERELVATISGGRTNYADSVKWRFTISRDNAKNSVYLQMNSLKPEDTAVYYCAVGSHSRSSNSYYYWGQGSQVTVSS
- polyreactivity (PSR sort gate): low polyreactivity

Sequence: QVQLVESGGCLVQAGGSLRLSCAATGSIFYGNTMVWYRQAPGKDRELLAAISSGGSTKYADSVKGRFTISRDNAKNTVYLQMNSLKPEDTAVYYCAADLPRYWVTWMDYRGQGTQVTVSS
- polyreactivity (PSR sort gate): low polyreactivity

Sequence: QVQLVESGGGLVQAGGTLRLSCAASGFIFENYAMGWYRQAPGKERELVAAISSSGGSTYYADSVKGRFTISRDNAKNTVYLQMNSLKPEDTAVYYCAKDYAPSATKLHYWGQGTQVTVSS
- polyreactivity (PSR sort gate): low polyreactivity

Sequence: QVQLVESGGGLVQAGGSLRLSCAASGRTFHPYAMGWYRQAPGKERELVAVITTSGSSTYYADSVKGRFTISRDNAKNTVYLQMNSLKPEDTAVYYCAALYWRHQAARYYYWGQGTQVTVSS
- polyreactivity (PSR sort gate): high polyreactivity

Sequence: QVQLVESGGGLVQAGGSLRLSCAASGNTYSYNAMGWYRQAPGKEREFVASISRRGGRTNYADSVKGRFTISRDNAKNTVYLQMNSLKPEDTAVYYCAATTVPLGDYWGQVTQVTVSS
- polyreactivity (PSR sort gate): high polyreactivity

Sequence: QVQLVESGGGLVQAGGSLRLSCAASGFIFDVYAMGWYRQAPGKERELVAAISSSGGRTYYADSVKGRFTISRDNAKNTVYLQMNSLKPEDSAVYYCAAKTHSRTKVYTADYWGQGTQVTVSS
- polyreactivity (PSR sort gate): high polyreactivity

Sequence: QVQLVESGGGLVQAGGSLRLSCAASGRILYRYAMGWYRQAPGKERELVAAITWRGGTTYYADSVKGRFTISRDNAKNTVYLQMNSLKPEDTAVYYCNADWWRTLESDYWGQGTQVTVSS
- polyreactivity (PSR sort gate): low polyreactivity

Sequence: QVQLVESGGGLVQAGGSLLLSCAASGRIFRSYAMGWYRQAPGKERELVAAISSGGSTKYADSVKGRFTISRDNAKNTVYLQMNSLKPVDTAVYYCAASRTRLGTSGTSYGAAYDYWGQGTQVTVSS
- polyreactivity (PSR sort gate): high polyreactivity

Sequence: QVQLVESGGGLVQAGGSLRLSCAASVRIIDINAMGWSRQAPRKEREFVAGITSVGSTNYADSEKGRFTISRDNAKNTDYLDMNSLKPEDTAVYYCAADTSVHSEVDYWGQGTQVTVSS
- polyreactivity (PSR sort gate): low polyreactivity

Sequence: QVQLVESGVRLLQAGGSLRLSCAASGITSDDNTMGWYRQAPGKERELVARIRRTGGGTYYADSVKGRFTISRDNAKNTVYLQINSLKPEDSAVYYCAAVPSWGYRFNRVPYLWVDYWGQGTQVTVSS
- polyreactivity (PSR sort gate): low polyreactivity

Sequence: QVQLEVSGGGLVQAGGSLLLSCAASGFTFYFYAMGWSRQATGTERELVAAISRSGSRTYYADSVKGRFTISRDNAKNTVYLQMNSLKPEDTAVYYCARVRPRGLYFVLHYDYWGQGTHVTVSS
- polyreactivity (PSR sort gate): high polyreactivity

Sequence: QVQLVESGGGLVQAGGSLRLSCAASGRIFDLYTMGWYRQAPGKERELVAAIRWSDGSTYYADSVKGRFTISRDNAKNTDYLQMNSLKPEDTAVYYCAADSRTSYYNDDYDYWGQGTQVTVSS
- polyreactivity (PSR sort gate): low polyreactivity

Sequence: QFHLVESGGGLLQAGGSLRLSCAASGRIFYANDMGWYRQAPGKERELLAAISQSGGSTFYADSVKGRFTISRDNAKNTVYLQMNSLKPEDTAVYYCATDYYGPVYDLDYDYWGQGTQVSVSS
- polyreactivity (PSR sort gate): low polyreactivity

Sequence: QVQLVESGGGLVQAGGSLRLSFAASGSIFASNAMGWYRQAPGKERELVAAISKRGGSTYYVDSVKGRFTISRDNAKNTVYFQMNSLKPEDTAVYYCNTYIRQDAPGQYDYWGQGTQVTVSS
- polyreactivity (PSR sort gate): high polyreactivity

Sequence: QVQLVESGGGLVQAGGSLRLSCAASGNTFGYYAMGWYRQAPGKERELVAAINFGGDTSYADSVKGRFTISRDNAKNTVYLQMNSLKPEDTAVYYCAADGSYWIYADGDYWGQGTQVTVSS
- polyreactivity (PSR sort gate): low polyreactivity

Sequence: QVQLVESGGGLVQAGGSLRLSCAASGFIFGYYAMGWYRQAPGKERELVAAISRSGGRTYYADSVKGRFTISRDNAKNTVYLQMNSLKPEDTAVYYCAKGSNRSRGYYWGQGTQVTVSS
- polyreactivity (PSR sort gate): high polyreactivity

Sequence: QVQLVESGGGLVQAGGSLRLSCAASGFIFWTYAMGWYRQAPGKERELVAAITGGGGTTYYADSVKGRFTISRDTAKNTVYLQMNSLKPEDTAVYYCAAKQYRSRSGGYWGQGTQVTVSS
- polyreactivity (PSR sort gate): high polyreactivity

Sequence: QVQLVESGGGLVQAGGSLRLSCAASGSTFPYNAMGWYRQAPGKERELVAAITSSGRTNYADSVKGRFTITLDNAKNTVYLQMNSLKPEDTAVYYCAAGRWYAHRVDYWGQGSQVTVSS
- polyreactivity (PSR sort gate): low polyreactivity

Sequence: QVQLVESGGGLVQAGGSLRLCCAASGLTFAYYDMGWYRQAPGKERELVAAITSGGTTNYADSVKGRFTISRDNAKNTVYLQMNSLKPEDNAVYYCATDSWYGSWKYDYWGQGTQVTLSS
- polyreactivity (PSR sort gate): low polyreactivity

Sequence: QVQLVESGRGLVQAGGSLRLSCAASGRIFFYYAMGWYREAPGKERELVATISYSGGGTYYADSVKGRFTISRDNAKNTVYLQMNSLKPEDTAVYYCNARWGTPYYIQDFDYWGQGTQVTVSS
- polyreactivity (PSR sort gate): low polyreactivity

Sequence: QVQLVESGGGLVQAGGSLRLSCAASGGTFHSNAMGWYRQAPGKERELVASINWSGGSTYYADSVKGRFTISRDNAKNTDYLQMNSLKPEDTAVYYCAARESYPGYGYDHWGQGTQVTVSS
- polyreactivity (PSR sort gate): low polyreactivity

Sequence: QVQLVESGGGLFQAGGSLRLSCAASGSTFPYNAMGGYRQAPGKERELVAAINSGATTYYADSVKGRFTISRDNAKNTVYLQMNSLKPEDTAVYYCAAEGYASSSEYDYWGQGTQVTVSS
- polyreactivity (PSR sort gate): low polyreactivity

Sequence: QVQLVESGGGIVQAGGSLRLSCAATGRTFGYNAMGWYRQAPGKERELVAAIRTIGDSTYYADSVKGRFTISRDNAKNTVYLQMNSLKPEDTAVYYCAARKLRSRYDYWGQGTQVTVSS
- polyreactivity (PSR sort gate): high polyreactivity

Sequence: QVQLVESGGGLVQAGGILRLICAASGRIFGPYAMGWYRQAPGKERELVADITGGGTYYADSVKGRFTISRDNAKNTVYLQMFSLKPEDTSVYYCAADYSSYTSFRYDYWGQGTHVTVSS
- polyreactivity (PSR sort gate): low polyreactivity

Sequence: QVQLVESGVGLVQAGVILRLSCAASGRTFRRNAMGWYRHAPGKERELVAAISWRGGSTYYADSVKGRFTISRDNAKNTVYLQLNSMKPEDTAVYYFAAGFESYDYWGQGTQVTVSS
- polyreactivity (PSR sort gate): high polyreactivity

Sequence: QVQLVESGGGLVQAGGSLRLSCGASGRIFAVNAMGWYRQARGKERELVAAITNVGSTNYADSVKGRFTISRDNAKNTVYLQMNSLKPEDTAVYYCNADLAQEDWKMDYWGLGTQVTVSS
- polyreactivity (PSR sort gate): low polyreactivity

Sequence: QVQLVESGGGLLQAGGSLRLSCADSGRTFGGYSMGWYRQATGKERELVAAISKRSGSTYYADSVKGRFTISRVNAKNTVYLQMNSLKPEDTAVYYCNKVWFQRSVQPVEYDYWGQGTQVTVSS
- polyreactivity (PSR sort gate): high polyreactivity

Sequence: QVQLVESGGGLVQAGGSLRLSCAASGRIFPYYTMGWYRPAPGKERELVAAISRRGSSTYYADSVKGRFTISRDNAKNTVYLQMNSLKPEDTAVYFCAADRGGYTRTGEYDYWGQGTQVTVSS
- polyreactivity (PSR sort gate): high polyreactivity
